# Test results: patent publication US20180291083A1 (IMMATICS BIOTECHNOLOGIES, published 2018)
# Molecular target: T1, human recombinant HLA-B*08:01 with b2m (human)
# T1 construct: Peptide-receptive MHC class I used in the pMHC stability assay by ImmunAware; also called MHC heavy chain and b2m
# Assay: pMHC stability assay at 37 C, mean half-life of b2m on heavy chain, grade (T1/2 >2 h = +; >4 h = ++; >6 h = +++; >10 h = ++++)
# Procedure: The peptide-MHC stability for HLA-B*08:01 peptides was performed by ImmunAware (Copenhagen, Denmark). The data were obtained using a proximity based, homogenous, real-time assay to measure the dissociation of peptides from HLA class I molecules. First human recombinant HLA-B*08:01 and b2m were expressed in E. coli and purified in a series of liquid chromatography based steps (Ferre et al., 2003; Ostergaard et al., 2001). Afterwards, the stability of a peptide-MHC complex (pMHC) can be determined by measuring the amount of b2m associated with the MHC heavy chain over time at 37° C. (Harndahl et al., 2012). The stability of each pMHC, expressed as the half life of b2m associated with the respective heavy chain, was calculated by fitting the data to a one-phase dissociation equation.
row,mean half-life (T1/2) of peptide-MHC complex,Binder
1,6 to 10 h,FEKEKKESL (synthetic peptide; also called SESN3 peptide) [peptide FEKEKKESL (SEQ ID NO: 118)]
2,4 to 6 h,ELYQRIYAF (synthetic peptide; also called PIK3R6 peptide) [peptide ELYQRIYAF (SEQ ID NO: 115)]
3,4 to 6 h,HNALRILTF (synthetic peptide; also called NUP210 peptide) [peptide HNALRILTF (SEQ ID NO: 114)]

# Further lines, the binder ahead of its results:
row,Binder,mean half-life (T1/2) of peptide-MHC complex
1,DLRTKEVVF (synthetic peptide; also called SIPA1L3 peptide) [peptide DLRTKEVVF (SEQ ID NO: 119)],4 to 6 h
2,VPPKKHLL (synthetic peptide; also called TRRAP peptide) [peptide VPPKKHLL (SEQ ID NO: 120)],2 to 4 h
3,YIKTAKKL (synthetic peptide; also called RALGPS2 peptide) [peptide YIKTAKKL (SEQ ID NO: 117)],4 to 6 h
4,TLKIRAEVL (synthetic peptide; also called RALGPS2 peptide) [peptide TLKIRAEVL (SEQ ID NO: 116)],6 to 10 h
5,RPKKVNTL (synthetic peptide; also called ZBTB24 peptide) [peptide RPKKVNTL (SEQ ID NO: 121)],2 to 4 h
6,DANSRTSQL (synthetic peptide; also called MAP3K1 peptide) [peptide DANSRTSQL (SEQ ID NO: 113)],6 to 10 h
